Measurements from article doi:10.1101/2025.02.22.639629 (bioRxiv, 2025).
Residue numbers refer to the chain shown, from its start. In names and notes the source's numbering stands.

B1: mature IL-37 (Lys53 N-terminus) (ligand, human, UniProt Q9NZH6 53-218, looked up)
chain: KNLNPKKFSIHDQDHKVLVLDSGNLIAVPDKNYIRPEIFFALASSLSSASAEKGSPILLGVSKGEFCLYCDKDKGQSHPSLQLKKEKLMKLAAQKESARRPFIFYRAQVGSWNMLESAAHPGWFICTSCNCNEPVGVTDKFENRKHIEFSFQPVCKAEMSPSEVSD
B2: IL-37 R158A (ligand, human, UniProt Q9NZH6 53-218, looked up)
chain: B1 chain with R106A

Target: the molecule itself
Experiment: SEC-MALS

Row | Protein | stoichiometry N
1 | B1 | 2
2 | B2 | 2
